This note sets out measurements from patent publication US20120003214A1.

In experiment [1] the target is apical membrane antigen-1 (AMA1) of Plasmodium falciparum, strain 3D7 (Plasmodium falciparum). In words: ELISA, biosensor and protein bioarray. (In an ELISA, binding on a coated surface is turned into a signal by an enzyme label.)
The target is the same in experiment [2]. In words: protein bioarray.
The target is the same in experiment [3]. In words: biosensor, purified proteins.
The target is the same in experiment [4]. In words: not stated (screen of a random mutagenesis library against AMA1).

B1: VNAR 22A-2 (12Y-2 Thr39Ser; Pro90Leu) (VNAR)
VNAR: AWVDQTPRTATKETGESLTINCVLRDASFELKDTGWYRSKLGSTNEQSISIGGRYVETVNKGSKSFSLRISDLRVEDSGTYKCQAFYSLLLGDYNYSLLFRGEKGAGTALTVK
Broadly, the Kd is the free concentration of one partner at which half of the binding sites on the other are occupied at equilibrium, for simple one-to-one binding. Lower therefore signals tighter binding. With B1, the fold better affinity than 14M-15 in experiment [1] was 2 fold. In experiment [2], this molecule displayed a Kd of 2.6 nM. This molecule showed a fold better affinity than 12Y-2 in experiment [3] of 20 fold.

B2: VNAR 14M-8 (12Y-2 Phe100Leu) (VNAR)
VNAR: AWVDQTPRTATKETGESLTINCVLRDASFELKDTGWYRTKLGSTNEQSISIGGRYVETVNKGSKSFSLRISDLRVEDSGTYKCQAFYSLPLGDYNYSLLLRGEKGAGTALTVK
B2: the fold enhanced affinity over the wild type 12Y-2 in experiment [4] was determined as 10 fold.

B3: VNAR 14M-15 (12Y-2 Pro90Leu variant) (VNAR)
VNAR: AWVDQTPRTATKETGESLTINCVLRDASFELKDTGWYRTKLGSTNEQSISIGGRYVETVNKGSKSFSLRISDLRVEDSGTYKCQAFYSLLLGDYNYSLLFRGEKGAGTALTVK
Consider B3, for which the fold enhanced affinity over the wild type 12Y-2 in experiment [4] turned out to be 10 fold. The molecule also returned a Kd in experiment [2] of 6.5 nM.
